We go through 1 molecule from US20110008406A1.

Assay [1] concerns the target T1, silk fibroin, sericin-depleted, from degummed Bombyx mori silk (dissolved in 9.3 M LiBr, dialysed, then gelled or precipitated) (Bombyx mori), P05790. The assay can be described thus: HPLC of 23RGD extracted from silk precipitate, formulation AVLO, against the calculated molar ratio.
Assay [2] addresses T1, silk fibroin, sericin-depleted, from …. Kind of assay: HPLC of 23RGD extracted from silk precipitate, formulation SCLO, against the calculated molar ratio.
For assay [3] the target is unchanged. Kind of assay: HPLC of 23RGD extracted from silk precipitates; plateau over the formulations.
Assay [4] shares this target. The assay can be described thus: HPLC of 23RGD extracted from silk precipitate, formulation BASE, against the calculated molar ratio.
For assay [5] the target is unchanged. Kind of assay: HPLC of 23RGD extracted from the final rinsed 23RGD-enhanced silk gel.
Assay [6] shares this target. The assay can be described thus: HPLC of 23RGD extracted from lyophilized silk precipitate, formulation 0.6S 3R 10:1.
The target is the same in assay [7]. The assay can be described thus: HPLC of 23RGD extracted from lyophilized silk precipitate, formulation BASE.
For assay [8] the target is unchanged. The assay can be described thus: HPLC of 23RGD extracted from lyophilized silk precipitate, formulation AVLO.
Assay [9] shares this target. Kind of assay: HPLC of 23RGD extracted from lyophilized silk precipitate, formulation SCLO.
Assay [10] has the same target. Kind of assay: HPLC of 23RGD extracted from lyophilized silk precipitate, formulation RHI.
The target is the same in assay [11]. The assay can be described thus: HPLC of 23RGD extracted from lyophilized silk precipitate, formulation AVHI.
Assay [12] shares this target. The assay can be described thus: HPLC of 23RGD extracted from silk precipitate, formulation printed as RMED, against the calculated molar ratio.
The target is the same in assay [13]. The assay can be described thus: HPLC and dry mass of silk precipitates, over all formulations.
Assay [14] has the same target. The assay can be described thus: HPLC of 23RGD extracted from silk precipitate, formulation ECLO, against the calculated molar ratio.
Assay [15] has the same target. Kind of assay: HPLC of 23RGD extracted from lyophilized silk precipitate, formulation printed as RLO.
Assay [16] has the same target. Kind of assay: HPLC of 23RGD extracted from lyophilized silk precipitate, formulation SCVLO.
Assay [17] shares this target. Kind of assay: HPLC of 23RGD extracted from lyophilized silk precipitate, formulation printed as RMED.

Consider GRGDIPASSKGGGGSRLLLLLLR (modifications not checked) [23RGD peptide (amphiphilic peptide: RGD motif, spacer region, leucine tail; 23 amino acids)], for which the bound RGD, fold of the calculated (expected) amount in assay [1] was 2 fold; in assay [2], 2 fold; in assay [4], 2 fold; in assay [12] it was 2 fold; in [14], 1.5 fold. Further, in assay [3], the apparent saturation, RGD molecules per molecule of silk (mol 23RGD per mol silk) was 10. In addition, in assay [5], the 23RGD:silk molar ratio (bound) (mol 23RGD per mol silk) came out at 3.35. Further, the 23RGD:silk ratio (bound) (mol 23RGD per mol silk) in assay [6] was determined as 10; in [7], 8.7; in [8], 5.2; in [9], 9.9; in [10], 10.7; in assay [11], 10.5. For the same molecule, the 23RGD:silk ratio (bound) (mol 23RGD per mol silk) was determined as 1.1 in assay [15], 11 in assay [16] and 6.95 in assay [17]. The molecule further had a percent of 23RGD precipitated with silk in [13] of 5 to 30%.
